{
  "source": "patent US11407988B2",
  "about": "“Composition and uses thereof” (priority 2015, dated 2022)",
  "key": {"[1]": {"tested_on": "purified protease of Thermoactinomyces sp. 16 (protease 16)", "format": "biochemical", "details": "for Inhibition of the enzyme (in words): 10 mM inhibitor"}, "[2]": {"molecular_target": "PrP^Sc, RML scrapie strain (Mus musculus, UniProt P04925)", "details": "pH 7"}, "BSA (1%, w/v) [3]": {"tested_on": "BSA (1%, w/v)", "experiment": "Effect of pH on protease activity of original and recombinant proteinase 16", "format": "biochemical", "details": "0.1M Universal buffer, 30 min, 40 C"}, "BSA (1%, w/v) [4]": {"tested_on": "BSA (1%, w/v)", "experiment": "Effect of pH and temperature on protease activity"}, "[5]": {"molecular_target": "PrP (PrP^C and PrP^Sc) in GT22L lysate, 22 L scrapie strain (Mus musculus, UniProt P04925)", "details": "pH 7"}, "[6]": {"molecular_target": "PrP (PrP^C and PrP^Sc) in GTK lysate, chandler scrapie isolate (Mus musculus, UniProt P04925)", "details": "pH 7"}, "[7]": {"tested_on": "bovine serum albumin (BSA)", "experiment": "Protease assay of purification steps of protease 16 (BSA, 0.1M CAPS pH 11.0, 40° C.)", "format": "biochemical", "description": "The secreted protease was purified from cell free supernatant by (NH4)2SO4 (0-60%) fractionation followed by affinity chromatography on Bacitricin-Sepharose 4B according to the quantities shown in Table 3 below.\nThe first step was ammonium sulphate (0-60%) fractionation. To express the final ammonium sulphate concentration as % ammonium sulphate saturation the Green and Hughes calculations were used. The precipitate obtained after fractionation was suspended in 0.02M HEPES buffer, pH 7.0 and was dialysed against water for 24 h. The second step used was affinity chromatography on bacitracin-Sepharose 4B using a modification of the method of Stepanov and Rudenskaya. Bacitracin-Sepharose 4B was equilibrated with 0.04M Tris/HCL, pH 7.9. Enzyme solution in 0.04M Tris/HCL pH 7.9 was applied to the column and the column was washed with the same buffer to remove all unbound protein. […] The propan-2-ol and NaCl were removed from the protease solution by dialysis."}, "PrP^Sc, BSE strain 301V": {"molecular_target": "PrP^Sc, BSE strain 301V (Mus musculus, UniProt P04925)", "details": "pH 7"}, "[8]": {"molecular_target": "pK resistant prion material (PrP^Sc) (Mus musculus, UniProt P04925)"}, "[9]": {"molecular_target": "PrP (PrP^C and PrP^Sc) in N2a22L20 lysate, 22 L scrapie strain (Mus musculus, UniProt P04925)", "details": "pH 7"}, "[10]": {"details": "10 mM reagent, purified protease 16"}},
  "note": "“And” between values parts separate entries of the source, which are not always exact repeats. Equal values may be shown once. Read-outs that look alike come from different tables or passages of the source. Where a SMILES comes first, the peptide text is derived from it. [ ]: non-standard residue; d: D form. The star is where a group is joined. Sta = CC(C)C[C@H](N)[C@@H](O)CC(=O)O; Isovaleryl = CC(C)CC(=O)*",
  "data": [
    {"molecule": "CC(C)C[C@H](NC(=O)[C@@H](O)[C@H](N)Cc1ccccc1)C(=O)O", "note": "[Bestatin]", "values": [
      {"measurement": "Residual protease activity (% of control, no reagent) (10 mM)", "setting": "[1]", "result": "92.6 % of control, no reagent"}
    ]},
    {"molecule": "O=C(O)CN(CCN(CC(=O)O)CC(=O)O)CC(=O)O", "note": "[Ethylenediaminetetraacetic acid]", "values": [
      {"measurement": "Residual protease activity (% of control, no reagent) (10 mM)", "setting": "[1]", "result": "99.6 % of control, no reagent"}
    ]},
    {"molecule": "CC(=O)N[C@@H](CC(C)C)C(=O)N[C@@H](CC(C)C)C(=O)N[C@H](C=O)CCCNC(=N)N", "note": "[Leupeptin]", "values": [
      {"measurement": "Residual protease activity (% of control, no reagent) (10 mM)", "setting": "[1]", "result": "56.8 % of control, no reagent"}
    ]},
    {"molecule": "Cl.NCCc1ccc(S(=O)(=O)F)cc1", "note": "[Pefabloc]", "values": [
      {"measurement": "Inhibition of the enzyme (in words)", "setting": "[1]", "result": "significantly inhibited"},
      {"measurement": "Residual protease activity (% of control, no reagent) (10 mM)", "setting": "[1]; [10]", "result": "2.9 % of control, no reagent"}
    ]},
    {"molecule": "CC(C)CC(=O)N[C@H](C(=O)N[C@H](C(=O)N[C@@H](CC(C)C)[C@@H](O)CC(=O)N[C@@H](C)C(=O)N[C@@H](CC(C)C)[C@@H](O)CC(=O)O)C(C)C)C(C)C", "note": "[Pepstatin] (Isovaleryl-VV[Sta]A[Sta]-OH)", "values": [
      {"measurement": "Residual protease activity (% of control, no reagent) (10 mM)", "setting": "[1]", "result": "97.6 % of control, no reagent"}
    ]},
    {"molecule": "O=S(=O)(F)Cc1ccccc1", "note": "[Phenylmethylsulfonyl fluoride]", "values": [
      {"measurement": "Inhibition of the enzyme (in words)", "setting": "[1]", "result": "significantly inhibited"},
      {"measurement": "Residual protease activity (% of control, no reagent) (10 mM)", "setting": "[1]; [10]", "result": "5.4 % of control, no reagent"}
    ]},
    {"molecule": "recombinant Thermitase 16: protease 16 cloned and heterologously expressed in Lactococcus lactis strain MG1363 (L. lactis strain 16), heat activated (protein) YTPNDPYFSSRQYGPQKIQAPQAWDIAEGSGVKIAIVDTGVQSNHPDLAGKVVGGWDFVDNDSTPQDGNGHGTHCAGIAAAVTNNSTGIAGTAPKASILAVRVLDNSGSGTWTAVANGITYAADQGAKVISLSLGGTVGNSGLQQAVDYAWNKGSVVVAAAGNAGNTAPNYPAYYSNAIAVASTDQNDNKSSFSTYGSWVDVAAPGSSIYSTYPTSTYASLSGTSMATPHVAGVAGLLASQGRSASNIRAAIENTADKISGTGTYWAKGRVNAYKAVQY", "values": [
      {"measurement": "Removal of RML prion strain as detected by western blot", "setting": "[2]", "result": "remove all traces of the RML prion strain"},
      {"measurement": "Activity levels of original versus recombinant protease at the same pHs", "setting": "BSA (1%, w/v) [3]", "result": "little difference in activity levels"}
    ]},
    {"molecule": "protease 16: Thermitase (serine alkaline protease, EC 3.4.21.66) secreted by Thermoactinomyces sp. 16; mature amino acid sequence SEQ ID NO: 1 (protein, Thermoactinomyces sp. 16) YTPNDPYFSSRQYGPQKIQAPQAWDIAEGSGVKIAIVDTGVQSNHPDLAGKVVGGWDFVDNDSTPQDGNGHGTHCAGIAAAVTNNSTGIAGTAPKASILAVRVLDNSGSGTWTAVANGITYAADQGAKVISLSLGGTVGNSGLQQAVDYAWNKGSVVVAAAGNAGNTAPNYPAYYSNAIAVASTDQNDNKSSFSTYGSWVDVAAPGSSIYSTYPTSTYASLSGTSMATPHVAGVAGLLASQGRSASNIRAAIENTADKISGTGTYWAKGRVNAYKAVQY", "values": [
      {"measurement": "pH of optimal activity", "setting": "BSA (1%, w/v) [4]; BSA in 0.1M Universal buffer, pHs 2.0-12.0", "result": "11.0 and > 8.0"},
      {"measurement": "Temperature of optimal activity", "setting": "BSA (1%, w/v) [4]; assay at 20-90° C.", "result": 50, "unit": "°C"},
      {"measurement": "Activity at the assay pH of pH 7.0", "setting": "BSA (1%, w/v) [4]; pH 7.0", "result": "retains significant activity"},
      {"measurement": "Detectable PrP by western blot, antibody 7A12", "setting": "[5]", "result": "complete loss of detectable PrP"},
      {"measurement": "Detectable PrP by western blot, antibody 7A12", "setting": "[6]", "result": "complete loss of detectable PrP"},
      {"measurement": "Removal of RML prion strain as detected by western blot", "setting": "[2]", "result": "remove all traces of the RML prion strain"},
      {"measurement": "Specific activity (units/mg protein)", "setting": "[7]; purification step: (NH4)2SO4 (0-60%) fractionation", "result": 0.79, "unit": "units/mg protein"},
      {"measurement": "Specific activity (units/mg protein)", "setting": "[7]; purification step: Bacitricin-Sepharose 4B", "result": 3.56, "unit": "units/mg protein"},
      {"measurement": "Specific activity (units/mg protein)", "setting": "[7]; purification step: Cell free supernatant", "result": 0.05, "unit": "units/mg protein"},
      {"measurement": "Activity levels of original versus recombinant protease at the same pHs", "setting": "BSA (1%, w/v) [3]", "result": "little difference in activity levels"},
      {"measurement": "Time to degrade 301V brain material", "setting": "PrP^Sc, BSE strain 301V", "result": "≤ 15", "unit": "min"},
      {"measurement": "Time to degrade 301V from mouse brain homogenate", "setting": "PrP^Sc, BSE strain 301V", "result": "≤ 15", "unit": "min"},
      {"measurement": "Detectable prion signal", "setting": "[8]", "result": "complete loss of detectable prion signal"},
      {"measurement": "Time to degrade the prion", "setting": "[8]", "result": "≤ 15", "unit": "min"},
      {"measurement": "Detectable PrP by western blot, antibody 7A12", "setting": "[9]", "result": "complete loss of detectable PrP"},
      {"measurement": "PrP signal by western blot, antibodies 8H4, 11G5 and GE8", "setting": "[9]", "result": "No signal"}
    ]}
  ]
}
